We go through 33 variants from the Human Domainome abundance scans (Beltran et al. 2025).

± gives the uncertainty stated by the source.

The labels stand for the following.
B1: POU domain, class 3, transcription factor 3, residues 408 to 463; numbered along this chain, P20264 (parent)
chain: KKRTSIEVSVKGALESHFLKCPKPSAQEITNLADSLQLEKEVVRVWFCNRRQKEKR

In this data set the parent is B1. The experiment in a line: abundance fitness (aPCA) (normalised: wild type 0, dead -1); higher = more abundant; growth selection in yeast, the domain comes from the species named. To be noted: Homo sapiens.
With KKRTSIEVSVKGALESHFLKCPKPSAQEITNLADSLQLEKEVVRVWFCNRRQKEKD [R56D], the abundance fitness was -0.247 ± 0.26.
On to KKRTSIEVSVKGALESHFLKCPKPSAQEITNLADSLQLEKEVVRVWFCNRRQKEKN [R56N], for which the abundance fitness is -0.143 ± 0.45.
Then KKRTSIEVSVKGALESHFLKCPKPSAQEITNLADSLQLEKEVVRVWFCNRRQKEKH [R56H], with -0.277 ± 0.41; and KKRTSIEVSVKGALESHFLKCPKPSAQEITNLADSLQLEKEVVRVWFCNRRQKEKP [R56P], with -0.226 ± 0.29; and KKRTSIEVSVKGALESHFLKCPKPSAQEITNLADSLQLEKEVVRVWFCNRRQKEKE [R56E], with 0.093 ± 0.17.
Regarding KKRTSIEVSVKGALESHFLKCPKPSAQEITNLADSLQLEKEVVRVWFCNRRQKEKM [R56M], the abundance fitness came out at 0.002 ± 0.31.
KKRTSIEVSVKGALESHFLKCPKPSAQEITNLADSLQLEKEVVRVWFCNRRQKEKG [R56G]: the abundance fitness was -0.068 ± 0.086.
KKRTSIEVSVKGALESHFLKCPKPSAQEITNLADSLQLEKEVVRVWFCNRRQKEKT [R56T]: the abundance fitness is -0.05 ± 0.2.
For KKRTSIEVSVKGALESHFLKCPKPSAQEITNLADSLQLEKEVVRVWFCNRRQKEKW [R56W], the abundance fitness is -0.272 ± 0.13.
On to KKRTSIEVSVKGALESHFLKCPKPSAQEITNLADSLQLEKEVVRVWFCNRRQKEKS [R56S], for which the abundance fitness is -0.151 ± 0.27.
Take KKRTSIEVSVKGALESHFLKCPKPSAQEITNLADSLQLEKEVVRVWFCNRRQKEKV [R56V]: the abundance fitness is -0.039 ± 0.081.
Then KKRTSIEVSVKGALESHFLKCPKPSAQEITNLADSLQLEKEVVRVWFCNRRQKEKC [R56C], with -0.435 ± 0.25; and KKRTSIEVSVKGALESHFLKCPKPSAQEITNLADSLQLEKEVVRVWFCNRRQKEKA [R56A], with -0.046 ± 0.12; and KKRTSIEVSVKGALESHFLKCPKPSAQEITNLADSLQLEKEVVRVWFCNRRQKTKR [E54T], with -0.281 ± 0.11.
Consider KKRTSIEVSVKGALESHFLKCPKPSAQEITNLADSLQLEKEVVRVWFCNRRQKVKR [E54V], for which the abundance fitness was -0.252 ± 0.075.
Consider KKRTSIEVSVKGALESHFLKCPKPSAQEITNLADSLQLEKEVVRVWFCNRRQKEGR [K55G], for which the abundance fitness was 0.053 ± 0.074.
Then KKRTSIEVSVKGALESHFLKCPKPSAQEITNLADSLQLEKEVVRVWFCNRRQKEMR [K55M], with -0.096 ± 0.1; and KKRTSIEVSVKGALESHFLKCPKPSAQEITNLADSLQLEKEVVRVWFCNRRQKEVR [K55V], with -0.031 ± 0.081.
As to KKRTSIEVSVKGALESHFLKCPKPSAQEITNLADSLQLEKEVVRVWFCNRRQKERR [K55R], the abundance fitness was -0.089 ± 0.075.
Then KKRTSIEVSVKGALESHFLKCPKPSAQEITNLADSLQLEKEVVRVWFCNRRQKETR [K55T], with -0.095 ± 0.099; and KKRTSIEVSVKGALESHFLKCPKPSAQEITNLADSLQLEKEVVRVWFCNRRQKECR [K55C], with -0.14 ± 0.13.
The value for KKRTSIEVSVKGALESHFLKCPKPSAQEITNLADSLQLEKEVVRVWFCNRRQKESR [K55S] was -0.011 ± 0.098; that for KKRTSIEVSVKGALESHFLKCPKPSAQEITNLADSLQLEKEVVRVWFCNRRQKEWR [K55W] was -0.129 ± 0.12.
On to KKRTSIEVSVKGALESHFLKCPKPSAQEITNLADSLQLEKEVVRVWFCNRRQKELR [K55L], for which the abundance fitness was -0.006 ± 0.087.
As for KKRTSIEVSVKGALESHFLKCPKPSAQEITNLADSLQLEKEVVRVWFCNRRQKEIR [K55I], the abundance fitness was -0.234 ± 0.15.
Regarding KKRTSIEVSVKGALESHFLKCPKPSAQEITNLADSLQLEKEVVRVWFCNRRQKEQR [K55Q], the abundance fitness was -0.132 ± 0.16.
Consider KKRTSIEVSVKGALESHFLKCPKPSAQEITNLADSLQLEKEVVRVWFCNRRQKEAR [K55A], for which the abundance fitness was -0.038 ± 0.098.
Turning to KKRTSIEVSVKGALESHFLKCPKPSAQEITNLADSLQLEKEVVRVWFCNRRQKEFR [K55F], the abundance fitness is -0.312 ± 0.17.
For the variant KKRTSIEVSVKGALESHFLKCPKPSAQEITNLADSLQLEKEVVRVWFCNRRQKEHR [K55H], the abundance fitness is -0.122 ± 0.19.
Regarding KKRTSIEVSVKGALESHFLKCPKPSAQEITNLADSLQLEKEVVRVWFCNRRQKEPR [K55P], the abundance fitness is -0.265 ± 0.16.
Turning to KKRTSIEVSVKGALESHFLKCPKPSAQEITNLADSLQLEKEVVRVWFCNRRQKEER [K55E], the abundance fitness is 0.024 ± 0.11.
KKRTSIEVSVKGALESHFLKCPKPSAQEITNLADSLQLEKEVVRVWFCNRRQKENR [K55N]: the abundance fitness stood at 0.021 ± 0.14.
Take KKRTSIEVSVKGALESHFLKCPKPSAQEITNLADSLQLEKEVVRVWFCNRRQKEDR [K55D]: the abundance fitness is -0.079 ± 0.12.
